Results published in publication PMC10397247.

What was measured:
Assay in all cases: two-hybrid library CCmax;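 also: natural log of median RNA to DNA barcode read ratio; higher means stronger binding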
4H342-AA = biological target: T1, 4H342-AA; details: mean of both orientations
T1 chain: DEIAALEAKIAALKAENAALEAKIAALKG

4H2883-AA = biological target: T2, 4H2883-AA; details: mean of both orientations
T2 chain: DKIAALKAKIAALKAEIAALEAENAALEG

4H2944-AA = biological target: T3, 4H2944-AA; details: mean of both orientations
T3 chain: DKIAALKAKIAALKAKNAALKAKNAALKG

4H794-AA = biological target: T4, 4H794-AA; details: mean of both orientations
T4 chain: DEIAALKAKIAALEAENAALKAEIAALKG

4H48-AA = biological target: T5, 4H48-AA; details: mean of both orientations
T5 chain: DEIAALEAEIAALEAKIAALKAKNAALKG

4H678-AA = biological target: T6, 4H678-AA; details: mean of both orientations
T6 chain: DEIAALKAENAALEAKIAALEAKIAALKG

4H780-AA = biological target: T7, 4H780-AA; details: mean of both orientations
T7 chain: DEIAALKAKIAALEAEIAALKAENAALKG

4H3606-AA = biological target: T8, 4H3606-AA; details: mean of both orientations
T8 chain: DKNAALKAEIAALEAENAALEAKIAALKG

4H2729-AA = biological target: T9, 4H2729-AA; details: mean of both orientations
T9 chain: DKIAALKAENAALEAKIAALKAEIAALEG

4H566-AA = biological target: T10, 4H566-AA; details: mean of both orientations
T10 chain: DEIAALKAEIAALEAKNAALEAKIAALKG

4H2949-AA = biological target: T11, 4H2949-AA; details: mean of both orientations
T11 chain: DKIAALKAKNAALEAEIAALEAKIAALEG

4H2837-AA = biological target: T12, 4H2837-AA; details: mean of both orientations
T12 chain: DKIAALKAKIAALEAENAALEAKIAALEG

4H906-AA = biological target: T13, 4H906-AA; details: mean of both orientations
T13 chain: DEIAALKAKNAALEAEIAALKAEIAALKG

4H3343-AA = biological target: T14, 4H3343-AA; details: mean of both orientations
T14 chain: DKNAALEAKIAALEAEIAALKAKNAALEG

4H881-AA = biological target: T15, 4H881-AA; details: mean of both orientations
T15 chain: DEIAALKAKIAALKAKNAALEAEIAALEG

4H993-AA = biological target: T16, 4H993-AA; details: mean of both orientations
T16 chain: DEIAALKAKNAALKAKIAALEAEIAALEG

4H717-AA = biological target: T17, 4H717-AA; details: mean of both orientations
T17 chain: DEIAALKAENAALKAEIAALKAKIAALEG

4H3627-AA = biological target: T18, 4H3627-AA; details: mean of both orientations
T18 chain: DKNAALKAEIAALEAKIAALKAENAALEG

4H3844-AA = biological target: T19, 4H3844-AA; details: mean of both orientations
T19 chain: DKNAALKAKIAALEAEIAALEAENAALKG

4H2642-AA = biological target: T20, 4H2642-AA
T20 chain: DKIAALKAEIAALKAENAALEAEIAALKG

4H2754-AA = biological target: T21, 4H2754-AA; details: mean of both orientations
T21 chain: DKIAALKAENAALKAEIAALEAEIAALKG

4H3921-AA = biological target: T22, 4H3921-AA; details: mean of both orientations
T22 chain: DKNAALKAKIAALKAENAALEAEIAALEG

4H3112-AA = biological target: T23, 4H3112-AA; details: mean of both orientations
T23 chain: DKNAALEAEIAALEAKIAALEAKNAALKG

4H335-AA = biological target: T24, 4H335-AA; details: mean of both orientations
T24 chain: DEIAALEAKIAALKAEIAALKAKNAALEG

4H454-AA = biological target: T25, 4H454-AA; details: mean of both orientations
T25 chain: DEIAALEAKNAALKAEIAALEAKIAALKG

4H429-AA = biological target: T26, 4H429-AA; details: mean of both orientations
T26 chain: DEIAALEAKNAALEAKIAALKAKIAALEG

4H3655-AA = biological target: T27, 4H3655-AA; details: mean of both orientations
T27 chain: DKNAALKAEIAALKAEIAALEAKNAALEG

4H605-AA = biological target: T28, 4H605-AA; details: mean of both orientations
T28 chain: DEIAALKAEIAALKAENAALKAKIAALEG

4H317-AA = biological target: T29, 4H317-AA; details: mean of both orientations
T29 chain: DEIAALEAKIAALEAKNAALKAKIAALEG

4H3427-AA = biological target: T30, 4H3427-AA; details: mean of both orientations
T30 chain: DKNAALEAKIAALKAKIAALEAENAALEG

4H3438-AA = biological target: T31, 4H3438-AA
T31 chain: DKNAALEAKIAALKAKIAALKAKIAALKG

4H406-AA = biological target: T32, 4H406-AA; details: mean of both orientations
T32 chain: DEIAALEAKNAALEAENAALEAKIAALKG

4H_APH = biological target: T33, 4H_APH; details: mean of both orientations
T33 chain: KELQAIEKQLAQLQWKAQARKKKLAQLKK

4H347-AA = biological target: T34, 4H347-AA; details: mean of both orientations
T34 chain: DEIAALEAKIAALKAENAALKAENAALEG

4H56-AA = biological target: T35, 4H56-AA; details: mean of both orientations
T35 chain: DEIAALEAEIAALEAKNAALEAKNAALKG

GCN2_T = details: mean of both orientations
4H_BCR = biological target: T36, 4H_BCR; details: mean of both orientations
T36 chain: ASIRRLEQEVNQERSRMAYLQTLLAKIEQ

4H452-AA = biological target: T37, 4H452-AA; details: mean of both orientations
T37 chain: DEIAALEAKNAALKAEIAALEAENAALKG

4H_GCN4 = details: mean of both orientations
4H675-AA = biological target: T38, 4H675-AA; details: mean of both orientations
T38 chain: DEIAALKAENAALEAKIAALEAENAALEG

4H497-AA = biological target: T39, 4H497-AA; details: mean of both orientations
T39 chain: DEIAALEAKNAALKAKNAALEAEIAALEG

4H391-AA = biological target: T40, 4H391-AA; details: mean of both orientations
T40 chain: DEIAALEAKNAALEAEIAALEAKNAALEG

4H3939-AA = biological target: T41, 4H3939-AA; details: mean of both orientations
T41 chain: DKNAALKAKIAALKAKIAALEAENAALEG

4H3591-AA = biological target: T42, 4H3591-AA; details: mean of both orientations
T42 chain: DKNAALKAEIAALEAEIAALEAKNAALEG

4H478-AA = biological target: T43, 4H478-AA; details: mean of both orientations
T43 chain: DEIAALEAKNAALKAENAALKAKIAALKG

4H428-AA = biological target: T44, 4H428-AA; details: mean of both orientations
T44 chain: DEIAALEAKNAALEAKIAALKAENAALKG

4H656-AA = biological target: T45, 4H656-AA; details: mean of both orientations
T45 chain: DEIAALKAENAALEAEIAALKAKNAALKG

4H971-AA = biological target: T46, 4H971-AA; details: mean of both orientations
T46 chain: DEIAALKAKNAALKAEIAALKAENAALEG

4H3446-AA = biological target: T47, 4H3446-AA
T47 chain: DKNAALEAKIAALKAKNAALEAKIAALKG

4H3666-AA = biological target: T48, 4H3666-AA; details: mean of both orientations
T48 chain: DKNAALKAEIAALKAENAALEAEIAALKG

4H3709-AA = biological target: T49, 4H3709-AA; details: mean of both orientations
T49 chain: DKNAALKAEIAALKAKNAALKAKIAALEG

4H3628-AA = biological target: T50, 4H3628-AA; details: mean of both orientations
T50 chain: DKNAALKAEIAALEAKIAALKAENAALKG

4H3920-AA = biological target: T51, 4H3920-AA; details: mean of both orientations
T51 chain: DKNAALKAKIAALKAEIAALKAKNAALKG

Chain of 4H_GCN4 (chain, as listed by the source): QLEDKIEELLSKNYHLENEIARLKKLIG

## DKIAALKAEIAALKAENAALEAEIAALKG [4H2642-AA]
4H342-AA
  interaction score: 1.85
4H2883-AA
  interaction score: -0.642
4H2944-AA
  interaction score: 0.299
4H794-AA
  interaction score: 0.96
4H48-AA
  interaction score: -0.661
4H678-AA
  interaction score: -1.06
4H780-AA
  interaction score: -1.24
4H3606-AA
  interaction score: -0.298
4H2729-AA
  interaction score: -0.868
4H566-AA
  interaction score: 1.3
4H2949-AA
  interaction score: -0.263
4H2837-AA
  interaction score: -1
4H906-AA
  interaction score: -1.72
4H3343-AA
  interaction score: -1.7
4H881-AA
  interaction score: 0.64
4H993-AA
  interaction score: 1.73
4H717-AA
  interaction score: -1.13
4H3627-AA
  interaction score: -1.58
4H3844-AA
  interaction score: -1.28
4H2642-AA
  interaction score: 2.07
4H2754-AA
  interaction score: -1.08
4H3921-AA
  interaction score: -1.11
4H3112-AA
  interaction score: -1.11
4H335-AA
  interaction score: -1.02
4H454-AA
  interaction score: 0.982
4H429-AA
  interaction score: -0.542
4H3655-AA
  interaction score: -1.24
4H605-AA
  interaction score: 1.36
4H317-AA
  interaction score: 1.06
4H3427-AA
  interaction score: -1.25

## DKNAALEAKIAALKAKIAALKAKIAALKG [4H3438-AA]
4H3438-AA
  interaction score: 0.922
4H406-AA
  interaction score: -1.51
4H_APH
  interaction score: -1.5
4H347-AA
  interaction score: -0.916
4H56-AA
  interaction score: 0.462
GCN2_T
  interaction score: -1
4H_BCR
  interaction score: -1.47
4H452-AA
  interaction score: -0.716
4H_GCN4
  interaction score: -1.68

## DKNAALEAKIAALKAKNAALEAKIAALKG [4H3446-AA]
4H675-AA
  interaction score: -0.821
4H497-AA
  interaction score: -1.57
4H391-AA
  interaction score: 0.726
4H3939-AA
  interaction score: -1.83
4H3591-AA
  interaction score: -0.816
4H478-AA
  interaction score: -1.66
4H428-AA
  interaction score: -0.892
4H656-AA
  interaction score: -0.701
4H971-AA
  interaction score: -1.14
4H3446-AA
  interaction score: -0.619
4H3666-AA
  interaction score: 0.18
4H3709-AA
  interaction score: -0.0647
4H3628-AA
  interaction score: -1.96
4H3920-AA
  interaction score: -1.52
